This test concerns the target Human Lung Tryptase (human) (UniProt Q15661). As to the kind of experiment: cell-based or functional assay.
Sequence of UniProt Q15661 (Q15661 31-275 limits assumed): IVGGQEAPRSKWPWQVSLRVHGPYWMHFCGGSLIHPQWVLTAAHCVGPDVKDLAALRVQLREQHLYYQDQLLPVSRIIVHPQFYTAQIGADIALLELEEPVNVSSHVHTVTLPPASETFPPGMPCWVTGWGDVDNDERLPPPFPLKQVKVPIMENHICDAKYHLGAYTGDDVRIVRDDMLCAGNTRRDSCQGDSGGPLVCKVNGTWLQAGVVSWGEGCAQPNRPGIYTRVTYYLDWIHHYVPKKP

On to “recombinant human Secretory Leukocyte Protease Inhibitor (rhSLPI) (from UniProt P03973 26-132)”, for which the % Inhibition of tryptase (cleavage of vasoactive intestinal peptide, RP-HPLC; example calculation) was 36.7%.

These data come from patent US7247704.
